The results in this text go back to US7981423B2, “Rage fusion proteins” (Transtech Pharma, Inc., priority 2004, dated 2011).

The subject of one test is Zucker diabetic rats. Description: Diabetic rat model of restenosis (balloon injury of left common carotid artery). It counts as in vivo. As to the method: In these experiments, balloon injury of left common carotid artery was performed in Zucker diabetic and nondiabetic rats using standard procedure. […] A maintenance dose was delivered every other day until day 7 after injury (i.e., at day 1, 3, 5 and 7 after injury). The maintenance dose was high=1 mg/animal for one group, or low=0.3 mg/animal for the second group. To measure vascular smooth muscle cell (VSMC) proliferation, animals were sacrificed at 4 days and 21 days after injury.
For the measurement of cell proliferation, 4 day animals received intraperitoneal injection of bromodeoxyuridine (BrDdU) 50 mg/kg at 18, 12, and 2 hours before euthanasia. After sacrifice, the entire left and right carotid arteries were harvested. Specimens were stored in Histochoice for at least 24 hours before embedding. Assessment of VSMC proliferation was performed using mouse anti-BrdU monoclonal antibody. A fluorescence labeled goat anti-mouse secondary antibody was applied. The number of BrdU-positive nuclei per section were counted by two observers blinded to the treatment regimens.
The remaining rats were sacrificed at 21 days for morphometric analysis. Morphometric analyses were performed by an observer blinded to the study groups, using computerized digital microscopic planimetry software Image-Pro Plus on serial sections, ([…]) carotid arteries stained by Van Gieson staining. All data were expressed as mean±SD. Statistical analysis was performed with use of SPSS software. Continuous variables were compared using unpaired t tests. A values of P≦0.05 was considered to be statistically significant.

The subject of the next test is male C57BL/6 mice. Description: Animal model of stroke (carotid/cerebral artery occlusion and reperfusion). It counts as in vivo, mouse. To be noted: treated just prior to reperfusion. As to the method:
For example, the RAGE fusion proteins of the present invention may also be used to treat stroke. […] In this model, the […] of a mouse is ligated and then reperfased to form an infart. To assess the efficacy of RAGE fusion proteins to treat or prevent stroke, mice were treated with sRAGE or TTP-4000 or control immunoglobulin just prior to reperfusion.
TTP-4000 was also compared to sRAGE in a disease relevant animal model of stroke. In this model, the […] of a mouse was ligated for 1 hour followed by 23 hours of reperfusion at which point the mice were sacrificed and the area of the infarct in the brain was assessed. […] After the nylon suture had been in place for 1 hour, the animal was re-anesthetized, rectal temperature was recorded and the suture was removed and the incision closed.
Infarct volume was determined by anesthetizing the animals with an intraperitoneal injection of sodium pentobarbital (50 mg/kg) and then removing the brains. […] The infarct area in each section was determined with a computer-assisted image analysis system, consisting of a Power Macintosh computer equipped with a Quick Capture frame grabber card, Hitachi CCD camera mounted on a camera stand. […] The images were captured and the total area of infarct was determined over the sections. […] Summing the infarct volumes of the sections calculated the total infarct volume. […]

The mark [1] stands for this setting: High dose 1.0 mg/animal qod × 4, loading dose 3 mg/animal, IP, 21 days, mean±SD.
Setting [2] is: Low dose 0.3 mg/animal qod × 4, loading dose 3 mg/animal, IP, 21 days, mean±SD.

B1: TTP-4000: four domain RAGE fusion protein (SEQ ID NO: 32): human RAGE amino acids 1-251 linked to CH2 and CH3 domains of human IgG (protein)
chain: MAAGTAVGAWALVLSLWGAVVGAQNITARIGEPLVLKCKGAPKKPPQRLEWKLNTGRTEAWKVLSPQGGGPWDSVARVLPNGSLFLPAVGIQDEGIFRCQAMNRNGKETKSNYRVRVYQIPGKPEIVDSASELTAGVPNKVGTCVSEGSYPAGTLSWHLDGKPLVPNEKGVSVKEQTRRHPETGLFTLQSELMVTPARGGDPRPTFSCSFSPGLPRHRALRTAPIQPRVWEPVPLEEVQLVVEPEGGAVAPPSVFLFPPKPKDTLMISRTPEVTCVVVDVSHEDPEVKFNWYVDGVEVHNAKTKPREEQYNSTYRVVSVLTVLHQDWLNGKEYKCKVSNKALPAPIEKTISKAKGQPREPQVYTLPPSRDELTKNQVSLTCLVKGFYPSDIAVEWESNGQPENNYKTTPPVLDSDGSFFLYSKLTVDKSRWQQGNVFSCSVMHEALHNHYTQKSLSLSPGK
Turning to B1, the “vascular smooth muscle cell proliferation (BrdU proliferating cells, in words)” value in the test with Zucker diabetic rats (4 days after injury, dose-responsive, FIG. 13B) is listed as “significantly reduced”. In addition, in the test on Zucker diabetic rats (setting [1]), the Luminal area is 0.16 ± 0.02 mm^2 and the Medial area was found to be 0.11 ± 0.01 mm^2. In the test with Zucker diabetic rats (setting [2]), the I/M ratio came out at 1.61 ± 0.26, the Luminal area is 0.18 ± 0.04 mm^2 and the Medial area came out at 0.11 ± 0.02 mm^2. Besides, the “intima/media ratio (in words)” value in the test on Zucker diabetic rats (dose-responsive, FIG. 13A) was “significantly reduced”. The “reduction in infarct volume compared to sRAGE (in words)” value in the test on male C57BL/6 mice is “significantly greater reduction in infarct volume”.
